Paper PMC9040739, “Entamoeba histolytica EHD1 Is Involved in Mitosome-Endosome Contact” (mBio, 2022)

Substrate: Nc1ncnc2c1ncn2[C@@H]1O[C@H](COP(=O)(O)OP(=O)(O)OP(=O)(O)O)[C@@H](O)[C@H]1O
Assay: coupled fluorescent ADP assay (ADP-hexokinase/G6PDH/diaphorase/resazurin)
Assay type: biochemical, Entamoeba histolytica
Conditions: MgCl2, pH 7.5, 37°C, 12.5-2,500 μM ATP

B1: His-EHD1 (Entamoeba histolytica HM-1:IMSS) (protein)
chain: MFGKKKQKPQMDTSYVSVIDGVKKIYDEKIKKLEADYKYDYLVSPLMRQADFEAKPMVLFLGQYSTGKTTFINYLLNYDYPGSHIGPEPTTDGFMAIMHGPNSTNIPGNTLCVQSDKPFTSLSKFGNEFMAKFNGSFCNLPLLEHLTFIDSPGVLSGEKQRIGRSYDFNEVVRWFAERADMIVLVFDAHKLDISDEFKGVIEAVKKHSEKMRLVLNKADSIDSQQLMRVYGALMWSLGKVMQTPECLRVYVSSFWDQPFKESLFTGLFEKERDDLMYDLHALPKQATVRKVNELCKRARLAKANAYITSYLREQMPTFGKDKKKAELLKDLNTVFNTVMKRYNLAAGDFPPIDVYKDRLQNCDFSKFPKLDMRVINAVDDALGTQIPLLLKKFPMEDDLSTHTNPFEVASNFEKCCITLDVSEDEMNSYQKEFDKLPKNEVGKVLGKDCFAPLMASGADKKDLQKIWSIADSGKEGALNAHQYILAKALVRTLLQSGGYPDNLPPVE
notes: full length (ORF primers start to stop), N-terminal His tag (pColdI), tag kept; E. coli BL21, Ni-NTA; native mass 58 kDa
Km: 94.91 ± 16.63 µM
